From the supplement of paper PMC12783771
± gives the standard deviation of the averaged measurements.

B1: library; numbered along this chain (parent)
chain: MNIQIGELAKRTACPVVTIRFYEQEGLLPPPGRSRGNFRLYGEEHVERLQFIRHCRSLDMPLSDVRTLLSYRKRPDQDCGEVNMLLDEHIRQVESRIGALLELKHHLVELREACSGARPAQSCGILQGLSDCVCDTRGTTAHPSD

How the values were obtained:
[1] = variants of: B1; assay: sfGFP reporter fluorescence (15 h) (µM FITC); higher = higher leak; conditions: library round: Round 1; ligand: none
Procedure, shortened: (§1)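 PCR-made linear PbrR templates (Echo-normalized to 5 nM) were expressed in BL21 Star (DE3) extract (PANOx-SP) with pPbrR-sfGFP reporter plasmid and 30 μg/mL GamS. Reactions were 1 μL, Echo-assembled, with 1 µM lead chloride, 30 µM zinc acetate or no metal, incubated 15 hr at 30 °C. Endpoint sfGFP fluorescence (485/528 nm, Synergy Neo2) was converted to µM FITC via standard curves in 50 mM sodium borate pH 8.5. Up to three biological replicates.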

[2] = variants of: B1; assay: sfGFP reporter fluorescence (15 h) (µM FITC); higher = stronger transcriptional activation; conditions: library round: Round 1
Procedure, shortened: as §1

Row | Variant | sfGFP reporter fluorescence [1] | sfGFP reporter fluorescence ([2]; ligand: 1 µM Pb) | sfGFP reporter fluorescence ([2]; ligand: 30 µM Zn)
1 | MNIQIGELAKRTACPVVTIRFYEQEGLLPPPGRSRGNFRLYGEEHVERLQFIRHCRSLDMPLSDVRTLLSYRKRPDQDCGEVTMLLDEHIRQVESRIGALLELVHHLVELREACSGARPAQSCGILQGLSDCVCDTRGTTAHPSD [N83T K104V] | 0.0623 ± 0.0026 | 0.113 ± 0.0044 | 0.249 ± 0.025
2 | MNIQIGELAKRTACPVVTIRFYEQEGLLPPPGRSRGNFRLYGEEHVERLQFIRHCRSLDMPLSDVRTLLSYRKRPDQDCGEVTMLLDEHIRQVESRIGALLELKHHLVELREACSGARPAQSCGILQILSDCVCDTRGTTAHPSD [N83T G128I] | 0.059 ± 0.00064 | 0.133 ± 0.011 | 0.387 ± 0.038
3 | MNIQIGELAKRTACPVVTIRFYEQEGLLPPPGRSRGNFRLYGEEHVERLQFIRHCRSLDMPLSDVRTLLSYRKRPDQDCGEVTMLLDEHIRQVESRIGALLELRHHLVELREACSGARPAQSCGILQGLSDCVCKTRGTTAHPSD [N83T K104R D135K] | 0.0682 ± 0.00097 | 0.0845 ± 0.0083 | 0.149 ± 0.0056
4 | MNIQIGELAKRTACPVVTIRFYEQEGLLPPPGRSRGNFRLYGEEHVERLQFIRHCRSLDMPLSDVRTLLSYRKRPDQDCGEVTMLLDEHIRQVESRGGALLELKHHLVELREACSGARPAQSCGILQGLSDCVCDTRGTTAHPSD [N83T I97G] | 0.06365 ± 0.00056 | 0.0646 ± 0.0051 | 0.0965 ± 0.0021
5 | MNIQIGELAKRTACPVVTIRFYEQEGLLPPPGRSRGNFRLYGEEHVERLQFIRHCRSLDMPLSDVRTLLSYRKRPDQDCGEVTMLLDEHIRQVESRTGALLELKHHLVELREACSGARPAQSCGILQGLSDCVCDTRGTTAHPSD [N83T I97T] | 0.06157 ± 0.00037 | 0.0658 ± 0.0032 | 0.102 ± 0.0039
6 | MNIQIGELAKRTACPVVTIRFYEQEGLLPPPGRSRGNFRLYGEEHVERLQFIRHCRSLDMPLSDVRTLLSYRKRPDQDCGEVTMLLDEHIRQVESRNGALLELKHHLVELREACSGARPAQSCGILQGLSDCVCDTRGTTAHPSD [N83T I97N] | 0.06206 ± 0.00056 | 0.064 ± 0.0017 | 0.0862 ± 0.0011
7 | MNIQIGELAKRTACPVVTIRFYEQEGLLPPPGRSRGNFRLYGEEHVERLQFIRHCRSLDMPLSDVRTLLSYRKRPDQDCGEVTMLLDEHIRQVESRHGALLELKHHLVELREACSGARPAQSCGILQGLSDCVCDTRGTTAHPSD [N83T I97H] | 0.0607 ± 0.0023 | 0.0635 ± 0.00085 | 0.0778 ± 0.0044
8 | MNIQIGELAKRTACPVVTIRFYEQEGLLPPPGRSRGNFRLYGEEHVERLQFIRHCRSLDMPLSDVRTLLSYRKRPDQDCGEVTMLLDEHIRQVESRCGALLELKHHLVELREACSGARPAQSCGILQGLSDCVCDTRGTTAHPSD [N83T I97C] | 0.0623 ± 0.0016 | 0.063 ± 0.0038 | 0.109 ± 0.0073
9 | MNIQIGELAKRTACPVVTIRFYEQEGLLPPPGRSRGNFRLYGEEHVERLQFIRHCRSLDMPLSDVRTLLSYRKRPDQDCGEVTMLLDEHIRQVESRSGALLELGHHLVELREACSGARPAQSCGILQGLSDCVCDTRGTTAHPSD [N83T I97S K104G] | 0.0612 ± 0.0026 | 0.076 ± 0.0097 | 0.102 ± 0.0094
10 | MNIQIGELAKRTACPVVTIRFYEQEGLLPPPGRSRGNFRLYGEEHVERLQFIRHCRSLDMPLSDVRTLLSYRKRPDQDCGEVTMLLDEHIRQVESRIGALLELVHHIVELREACSGARPAQSCGILQGLSDCVCDTRGTTAHPSD [N83T K104V L107I] | 0.0623 ± 0.0016 | 0.0753 ± 0.0068 | 0.112 ± 0.0052
11 | MNIQIGELAKRTACPVVTIRFYEQEGLLPPPGRSRGNFRLYGEEHVERLQFIRHCRSLDMPLSDVRTLLSYRKRPDQDCGEVTMLLDEQIRQVESRIGALLELKHHLVELREACSGARPAQSCGILQGLSDCVCDTRGTTAHPSD [N83T H89Q] | 0.0608 ± 0.0025 | 0.0955 ± 0.011 | 0.258 ± 0.013
12 | MNIQIGELAKRTACPVVTIRFYEQEGLLPPPGRSRGNFRLYGEEHVERLQFIRHCRSLDMPLSDVRTLLSYRKRPDQDCGEVTMLLDEHIRQVESRIGALLELKHHLVELRLACSGARPAQSCGILQGLSDCVCDTRGTTAHPSD [N83T E112L] | 0.0619 ± 0.0034 | 0.0766 ± 0.0039 | 0.125 ± 0.0069
13 | MNIQIGELAKRTACPVVTIRFYEQEGLLPPPGRSRGNFRLYGEEHVERLQFIRHCRSLDMPLSDVRTLLSYRKRPDQDCGEVTMLLDEHIRQVESRIGALLELKHHLVELRMACSGARPAQSCGILQGLSDCVCDTRGTTAHPSD [N83T E112M] | 0.06267 ± 0.00037 | 0.0849 ± 0.0046 | 0.162 ± 0.0094
14 | MNIQIGELAKRTACPVVTIRFYEQEGLLPPPGRSRGNFRLYGEEHVERLQFIRHCRSLDMPLSDVRTLLSYRKRPDQDCGEVTMLLDEHSRQVESRIGALLELKHHLVELREACSGARPAQSCGILQGLSDCVCDTRGTTAHPSD [N83T I90S] | 0.0629 ± 0.0014 | 0.0715 ± 0.0022 | 0.109 ± 0.0024
